# Source: PMC9396398, “Crystal structure of Ankyrin-G in complex with a fragment of Neurofascin reveals binding mechanisms required for integrity of the axon initial segment” (The Journal of Biological Chemistry, 2022)
# Changes are numbered by the printed parent chain.
# T1: AnkG R1-24 L343Q, L376Q (Rattus norvegicus)
# T1 chain: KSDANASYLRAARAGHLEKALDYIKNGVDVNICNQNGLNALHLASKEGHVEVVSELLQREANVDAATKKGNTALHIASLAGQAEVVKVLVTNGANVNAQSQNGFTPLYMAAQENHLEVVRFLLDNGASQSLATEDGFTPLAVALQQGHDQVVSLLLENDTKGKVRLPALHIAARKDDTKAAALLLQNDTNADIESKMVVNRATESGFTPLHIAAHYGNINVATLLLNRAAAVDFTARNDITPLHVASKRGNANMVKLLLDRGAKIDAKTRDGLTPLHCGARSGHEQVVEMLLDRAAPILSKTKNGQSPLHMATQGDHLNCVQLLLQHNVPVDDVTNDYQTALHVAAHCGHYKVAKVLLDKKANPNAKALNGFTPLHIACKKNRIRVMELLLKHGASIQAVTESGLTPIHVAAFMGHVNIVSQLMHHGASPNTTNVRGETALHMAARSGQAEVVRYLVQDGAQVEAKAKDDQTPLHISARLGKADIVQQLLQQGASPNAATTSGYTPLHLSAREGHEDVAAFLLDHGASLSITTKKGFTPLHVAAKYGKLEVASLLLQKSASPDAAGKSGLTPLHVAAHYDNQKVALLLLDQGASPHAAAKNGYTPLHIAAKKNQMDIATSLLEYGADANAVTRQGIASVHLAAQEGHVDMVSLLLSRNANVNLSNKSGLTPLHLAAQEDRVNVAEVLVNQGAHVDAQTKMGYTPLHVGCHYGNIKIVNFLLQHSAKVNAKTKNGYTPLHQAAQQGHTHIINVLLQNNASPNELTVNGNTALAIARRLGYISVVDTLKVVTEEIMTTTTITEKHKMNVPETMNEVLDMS
# T2: AnkG R1-24 H384A (Rattus norvegicus)
# T2 chain: T1 chain with Q306L, Q339L, H347A
# T3: AnkG R1-24 R318A, Q351A (Rattus norvegicus)
# T3 chain: T1 chain with R281A, Q306L, Q314A, Q339L
# T4: AnkG R8-16 (AnkG 275 to 571) (UniProt O70511 275-571)
# T4 construct: Ankyrin-G (AnkG), ANK repeats 8-16, residues 275-571 (limits are told for the crystallisation construct); In the crystal it stood fused behind the Nfasc ABD; also called eighth to sixteenth ANK repeats; source: E. coli BL21 (DE3), purified (Ni-NTA, size-exclusion chromatography)
# T4 sequence (looked up): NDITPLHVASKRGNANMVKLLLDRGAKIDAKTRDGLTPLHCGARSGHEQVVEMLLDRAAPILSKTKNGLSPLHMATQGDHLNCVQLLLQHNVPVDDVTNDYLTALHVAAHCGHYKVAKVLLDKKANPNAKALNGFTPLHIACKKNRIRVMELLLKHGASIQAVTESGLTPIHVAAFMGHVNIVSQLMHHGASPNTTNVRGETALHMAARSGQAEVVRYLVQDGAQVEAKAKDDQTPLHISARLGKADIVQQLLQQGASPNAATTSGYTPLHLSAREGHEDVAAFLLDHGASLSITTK
# B1: Nfasc ankyrin-binding domain (ABD, residues 1187-1214) (domain or fragment, UniProt P97685 1187-1214, looked up)
# chain: SDDSLVDYGEGGEGQFNEDGSFIGQYTV
# notes: also called Nfasc ABD; source: E. coli BL21 (DE3), purified (Ni-NTA, size-exclusion chromatography)
# Key:
# AnkG R1-24 L343Q, L376Q = biological target: T1, AnkG R1-24 L343Q, L376Q; test: ITC
# AnkG R1-24 H384A = biological target: T2, AnkG R1-24 H384A; test: ITC
# AnkG R1-24 R318A, Q351A = biological target: T3, AnkG R1-24 R318A, Q351A; test: ITC
# [1] = biological target: T4, AnkG R8-16 (AnkG 275 to 571); test: ITC; VP-ITC at 25 °C; 50 mM Tris, 100 mM NaCl, 1 mM EDTA, 1 mM DTT, pH 7.8; Nfasc proteins (200 μM) in the syringe, AnkG proteins (20 μM) in the cell; one-site binding model; conditions: both partners purified
binder,measurement,setting,value
B1,Kd,"AnkG R1-24 L343Q, L376Q",2 µM
same,Kd,AnkG R1-24 H384A,1.7 µM
same,Kd,"AnkG R1-24 R318A, Q351A",0.67 µM
same,Kd,[1],~1.2 µM
